Test [1] has as its target human transferrin receptor expressed by nonhematopoietic cancer cells (human) (UniProt P02786). Nature of the test: FACS, H358 cells, 1/10X. A general note: In flow cytometry, cells or beads pass a laser one at a time.
Test [2] has the same target. Nature of the test: FACS, HEC-1-A cells, 1X.
For test [3], the target named is T1, human transferrin receptor expressed by normal human cells (RBC, PMN, lymphocytes, monocytes, platelets, … (human, UniProt P02786 1-760)).
T1 construct: The assay is whole-cell FACS on normal donor cells; also called TfR on normal cells
T1 sequence (P02786 whole entry G142S): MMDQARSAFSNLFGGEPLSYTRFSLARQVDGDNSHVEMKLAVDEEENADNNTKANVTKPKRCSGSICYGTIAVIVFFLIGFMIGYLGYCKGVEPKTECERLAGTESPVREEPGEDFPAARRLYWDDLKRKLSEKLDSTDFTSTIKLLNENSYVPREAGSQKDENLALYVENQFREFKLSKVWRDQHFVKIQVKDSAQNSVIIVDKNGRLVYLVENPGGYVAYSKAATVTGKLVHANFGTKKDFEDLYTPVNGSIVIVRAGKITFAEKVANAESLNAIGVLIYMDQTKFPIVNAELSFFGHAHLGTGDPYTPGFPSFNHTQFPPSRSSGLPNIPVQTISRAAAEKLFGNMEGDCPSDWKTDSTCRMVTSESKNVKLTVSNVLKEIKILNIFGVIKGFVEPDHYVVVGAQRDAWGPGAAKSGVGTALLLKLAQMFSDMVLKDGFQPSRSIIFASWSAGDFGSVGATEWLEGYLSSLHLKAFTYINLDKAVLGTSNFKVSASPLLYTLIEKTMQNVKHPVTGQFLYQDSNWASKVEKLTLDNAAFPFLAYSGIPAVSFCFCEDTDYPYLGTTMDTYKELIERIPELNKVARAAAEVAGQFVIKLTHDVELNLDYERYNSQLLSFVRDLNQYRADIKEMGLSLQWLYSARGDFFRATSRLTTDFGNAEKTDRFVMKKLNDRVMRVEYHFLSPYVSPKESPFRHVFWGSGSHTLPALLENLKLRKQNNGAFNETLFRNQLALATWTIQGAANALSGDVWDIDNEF
Nature of the test: FACS, RBC, donor D005, 1x. The protocol: (§1) The hyper-immuned serum (Hyp-serum) or the corresponding cell marker antibodies for certain cell types were included as positive controls.
(§2) 1×10⁵ cells were seeded in each well of a v-bottomed 96-well plate and incubated with 50 μl of hybridoma culture supernatant at 1× and 10× dilution, or isotype control antibody mouse IgM, κ (BD™, Cat. No. 557275) at concentration of 1 μg/ml. A 300× dilution of human cell hyper-immune serum was used as binding positive control for all cell types. PE-conjugated anti-human CD41a (Southern Biotech™, Cat. No. 9391-09) was used as a positive control for staining human platelets. Anti-sialyl Lewis x antibody (Millipore™, Cat. No. MAB2096) was used as a positive control for staining human PMN. Anti-human CD31 (Hycult™, Cat. No. HM2039) was used as a positive control for staining HUVEC. After 30 minutes incubation at 4° C., cells were washed twice with 200 μl FACS buffer (1×PBS containing 1% FBS), stained with 50 μl of 1 μg/ml goat F(ab′)2-anti-mouse IgG(H+L)-PE (Southern Biotech™, Cat. No. 1032-09) or 1 μg/ml goat F(ab′)2-anti-mouse IgM(H+L)-PE (Southern Biotech™, Cat. No. 1022-09) in FACS buffer. After 30 minutes of incubation at 4° C., cells were washed twice with FACS buffer and analyzed by flow cytometry (BD LSR, BD Life Sciences).

Test [4] deals with T1, human transferrin receptor expressed by …. Nature of the test: FACS, platelets, donor D005, 1/10x. Here is the method:
as §1, §2

The target is the same in test [5]. Nature of the test: FACS, lymphocytes, donor D014, 1/10x. The protocol: (§3) Preparation of PBMC and PMN: The whole blood was diluted with an equal volume of PBS and mixed with 1/10 volume of 15% Dextran solution. […] After centrifugation at 2200 rpm for 15 min (rotor: SORVALL, PN11788 and centrifuge: SORVALL, RT7), PBMC concentrated in the interface, were collected and washed with large volumes of FACS buffer (2% FBS in PBS) for future use. The PMN-rich pellet was collected, from which residual RBC was removed by hypotonic lysis in 0.2% NaCl.
as §2

Test [6] deals with human transferrin receptor expressed by nonhematopoietic cancer cells (human) (UniProt P02786). Nature of the test: FACS, KLE cells, 1/5X.
human transferrin receptor expressed by nonhematopoietic cancer cells (human), sequence (P02786 whole entry G142S): as above
Test [7] concerns the target T1, human transferrin receptor expressed by …. Nature of the test: FACS, lymphocytes, donor D016, 1x. Here is the method:
as §1, §2

Test [8] concerns the target human transferrin receptor expressed by nonhematopoietic cancer cells (human) (UniProt P02786). Nature of the test: FACS, HEC-1-A cells, 1/5X.
Test [9] has as its target T1, human transferrin receptor expressed by …. Nature of the test: FACS, lymphocytes, donor D016, 1/10x. The protocol:
as §1, §2

The target in test [10] is human transferrin receptor expressed by nonhematopoietic cancer cells (human) (UniProt P02786). Nature of the test: FACS, Panc02.03B cells, 1X.
Test [11] has the same target. Nature of the test: FACS, NCI-N87 cells, 1/5X.
The target of test [12] is T1, human transferrin receptor expressed by …. Nature of the test: FACS, PMN, donor D005, 1/10x. Here is the method:
as §3, §2

For test [13] the target is unchanged. Nature of the test: FACS, monocytes, donor D102, 1x. The protocol: as §3, §2
The target is the same in test [14]. Nature of the test: FACS, RBC, donor D102, 1x. The protocol:
as §1, §2

Test [15] shares this target. Nature of the test: FACS, platelets, donor D102, 1/10x. Here is the method:
as §1, §2

Test [16] shares this target. Nature of the test: FACS, monocytes, donor D016, 1x. The protocol: as §1, §2
For test [17], the target named is human transferrin receptor expressed by nonhematopoietic cancer cells (human) (UniProt P02786). Nature of the test: FACS, MDA-MB-453 cells, 1X.
Test [18] deals with T1, human transferrin receptor expressed by …. Nature of the test: FACS, RBC, donor D014, 1/10x. The protocol:
as §1, §2

Test [19] has the same target. Nature of the test: FACS, monocytes, donor D016, 1/10x. Here is the method:
as §1, §2

Test [20] addresses human transferrin receptor expressed by nonhematopoietic cancer cells (human) (UniProt P02786). Nature of the test: FACS, Kato III cells, 1X.
Test [21] has the same target. Nature of the test: FACS, SU.86.86 cells, 1X.
Test [22] shares this target. Nature of the test: FACS, DU145 cells, 1/5X.
Test [23] shares this target. Nature of the test: FACS, SK-OV-3 cells, 1/5X.

Where only a bound is given, the exact number is not on record here.

B1: antibody 6-90 (antibody, mouse IgM, V domains shown)
VH: EVELQQFGIEMVKPGASVKISCKASGYIFTDYHMDWVRQSHGKSLEWIGDIDPKYDRVTYNQKFKGKASLTADKSSSTAYMELRSLTSEDTAVYYCAKTGAYGDYLAYWGQGTLVTVSA
VL: DLVMTQTPLSLPVSLGDQASISCRSSQSLVHSDGNTYFYWYLQKPGQSPKLLIYKVSNRFSGVPDRFSAGGSGTYFTLKISRVEAEDLGVYFCSQTTHFPPTFGGGTKLEIKR
notes: Mouse IgM, kappa from a hybridoma; tested as hybridoma culture supernatant
Consider B1, for which the MFI in test [1] stood at 1600 MFI; in test [2], 57 MFI; in test [6], 556 MFI; in [8] it was 11 MFI; in test [10] it was 5910 MFI; in [11], 5100 MFI. The MFI was 147 MFI in test [17], 1410 MFI in test [20] and 3950 MFI in test [21]. The “% positive cell binding” value in test [3] was less than 1%; in [4], less than 1%; in test [5] it was 1%; in test [7], 1%; in [9] it was 1%; in test [12] it was less than 1%. Further, the “% positive cell binding” value in test [13] was 2%; in test [14] it was less than 1%; in test [15] it was less than 1%; in test [16] it was less than 1%; in test [18], less than 1%; in test [19] it was less than 1%.

B2: antibody 122-72 (antibody, V domains shown)
VH: EVQLVESGGGLVQPKGSLKLSCAASGFTFNTYAMNWVRQAPGKGLEWVARIRSKSNNYATYYADSVKDRFTISRDDSQSMLYLQMNNLKTEDTAMYYCVAYGSRNYWGQGTTLTVSS
VL: DIVMTQSPSSLTVTAGEKVTMSCKSSQSLLNSGNQKNYLTWYQQKPGQPPKLLIYWASTRESGVPDRFTGSGSGTDFTLTISSVQAEDLAVYYCQNDYSYPYTFGGGTKLEIKR
notes: Mouse IgM, kappa from a hybridoma; tested as hybridoma culture supernatant; Antibody 60-43 is said to have the same CDRs
Take B2: the MFI in test [22] stood at 13 MFI; in [1] it was 2460 MFI; in test [23], 381 MFI; in [8], 15 MFI; in test [11] it was 4300 MFI. For the same molecule, the “% positive cell binding” value in test [3] was less than 1%; in [4], less than 1%; in test [5], 1%; in test [7] it was less than 1%; in test [9], 1%; in test [12] it was less than 1%. The “% positive cell binding” value in [13] was 1%; in [14], less than 1%; in test [15], less than 1%; in [16], less than 1%; in test [18], 1%; in [19] it was 1%.

B3: antibody 55-31 (antibody, mouse IgM, V domains shown)
VH: QVQLQQPGAELVKPGTSVKLSCKASGYNFTSYWINWVKLRPGQGLEWIGDIYPGSGSTNYNEKFKSKATLTVDTSSSTAYMQLSSLASEDSALYYCARSAYRYDWFAYWGQGTLVTVSA
VL: DIQMTQSPASLSVSVGETVTITCRASENIYSNLAWYQQKQGKSPQLLVYAATNLADGVPSRFSGSGSGTQYSLKINSLQSEDFGSYYCQHFWGTPYTFGGGTKLEIKR
notes: as for B1
On to B3, for which the MFI was 2280 MFI in test [22]; 295 MFI in test [1]; 1490 MFI in test [2]; 87 MFI in [6]; 1970 MFI in test [23]; 1240 MFI in test [8]. Further, the MFI in [10] is 574 MFI; in test [17], 81 MFI; in test [20], 140 MFI; in test [21] it was 154 MFI. The “% positive cell binding” value in test [3] is less than 1%; in test [4] it was less than 1%; in [5], 1%; in [7], 1%; in test [9], 1%; in test [12] it was 1%. The “% positive cell binding” value in test [13] is 3%; in [14], less than 1%; in test [15], less than 1%; in test [16] it was 1%; in test [18], 1%; in [19], less than 1%.
